Key:
[1] = test system: PilJ soluble domain (Clostridioides difficile R20291?); test: EMSA; details: 25C: 10 ng DNA in 10 ul, 10 mM Tris-HCl pH 8.5, 50 mM NaCl, 1 mg/ml BSA, 30 min, 1.5% agarose; 4C: 500 ng DNA in 10 ul, 20 mM Tris-HCl pH 8.3, 100 mM NaCl …
[2] = test system: PilW soluble domain (Clostridioides difficile R20291?); test: EMSA; details: 25C: 10 ng DNA in 10 ul, 10 mM Tris-HCl pH 8.5, 50 mM NaCl, 1 mg/ml BSA, 30 min, 1.5% agarose; 4C: 500 ng DNA in 10 ul, 20 mM Tris-HCl pH 8.3, 100 mM NaCl …

Substance plasmid DNA (25C EMSA) has a Kd [1] of 2.2 µM and a Kd [2] of 14.5 µM.

From paper PMC9556784
